Laboratory results taken from US20120316071A1 (published 2012).
Residue numbers refer to the chain shown, from its start. Numbers in names are those of the source. Each block holds one binder with its values, some of them ahead of it.

Legend:
Recombinant Human DLL4 [1] = biological target: T1, Recombinant Human DLL4 (human, UniProt Q9NR61 27-524); assay: ECL (MSD) 96-well plate assay, DLL4 coated at 15 ug/mL, Fab 0.02 uM; signal over blank
T1 construct: Bought recombinant human DLL4 (R&D Systems Cat#1506-D4/CF), coated on the plate; also called delta-like protein 4; rHuman DLL4

Recombinant Human DLL4 [2] = biological target: T1, Recombinant Human DLL4; assay: ECL (MSD) 96-well plate assay, DLL4 coated at 30 ug/mL, Fab 0.1 uM; signal over blank
[3] = biological target: T2, Recombinant Human DLL4 (R&D Systems Cat#1506-D4/CF) (human, UniProt Q9NR61 27-524); assay: ECL multispot (MSD) binding assay, antigen spotted on plate, Fab 0.04 uM;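 note: purified Fab incubated 1 h at 20 °C on antigen spots, detected via TAG-labelled antibody, ECL read against each well's blank, with signal-to-blank of at least 4 scored as binder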
T2 construct: Bought recombinant protein; also called delta-like protein 4; rHuman DLL4

[4] = biological target: T3, rHuman P-Cadherin/Fc Chimera, CF (R&D Systems Cat#861-PC) (human, UniProt P22223 108-654); assay: as above
T3 construct: Bought recombinant protein; Fc part of the bought chimera not given

[5] = biological target: T4, Recombinant Human DLL4 (R&D Systems Cat#1506-D4/CF) (human, UniProt Q9NR61 27-529); assay: surface plasmon resonance, Fab against recombinant human DLL4; standard deviation in parentheses
T4 construct: Bought recombinant protein; also called rHuman DLL4; delta-like protein 4

B1: Fab VH5-51_IGHD5-18*01>3_IGHJ4*01 G100T & V3-4_IGLJ1*01 (Fab, V domains shown)
VH: EVQLVQSGAEVKKPGESLKISCKGSGYSFTSYWIGWVRQMPGKGLEWMGIIYPGDSDTRYSPSFQGQVTISADKSISTAYLQWSSLKASDTAMYYCARRTYSYGYDYFDYWGQGTLVTVSS
VL: QTVVTQEPSFSVSPGGTVTLTCGLSSGSVSTSYYPSWYQQTPGQAPRTLIYSTNTRSSGVPDRFSGSILGNKAALTITGAQADDESDYYCVLYMGSGISYVFGTGTKVTVL
notes: Fab; VH-CH1 (His6/Flag, Plasmid A) and VL-lambda CL (Plasmid E)
- Signal/Noise (Recombinant Human DLL4 [1]): 11
- Signal/Noise (Recombinant Human DLL4 [2]): 26

B3: Fab VH5-51_IGHD5-18*01>3_IGHJ4*01 G100K/G104T (H:KT) & V3-4_IGLJ1*01 G97A (Fab, V domains shown)
VH: B1 VH with T100K, G104T
VL: B1 VL with G97A
notes: Fab; Expressed from Plasmid A (CH1, His6 and Flag tags) and Plasmid E (lambda CL); also called KT & G97A
- ECL signal [3]: 14900
- ECL signal [4]: 474

B7: Fab VH5-51_IGHD5-18*01>3_IGHJ4*01 G100R & V3-4_IGLJ1*01 (Fab, V domains shown)
VH: B1 VH with T100R
VL: B1 VL
notes: as for B1
- Signal/Noise (Recombinant Human DLL4 [1]): 39.9
- Signal/Noise (Recombinant Human DLL4 [2]): 90.6

Other lines, results leading:

- Signal/Noise (Recombinant Human DLL4 [1]): 12.3
- Signal/Noise (Recombinant Human DLL4 [2]): 29.1
B2: Fab VH5-51_IGHD5-18*01>3_IGHJ4*01 G104M & V3-4_IGLJ1*01 (Fab, V domains shown)
VH: B1 VH with T100G, G104M
VL: B1 VL
notes: as for B1

- Signal/Noise (Recombinant Human DLL4 [1]): 2.6
- Signal/Noise (Recombinant Human DLL4 [2]): 6.7
B4: Fab VH5-51_IGHD5-18*01>3_IGHJ4*01 G104A & V3-4_IGLJ1*01 (Fab, V domains shown)
VH: B1 VH with T100G, G104A
VL: B1 VL
notes: as for B1

- Signal/Noise (Recombinant Human DLL4 [1]): 25.6
- Signal/Noise (Recombinant Human DLL4 [2]): 47.8
B5: Fab VH5-51_IGHD5-18*01>3_IGHJ4*01 G104S & V3-4_IGLJ1*01 (Fab, V domains shown)
VH: B1 VH with T100G, G104S
VL: B1 VL
notes: as for B1

- Signal/Noise (Recombinant Human DLL4 [1]): 9.1
- Signal/Noise (Recombinant Human DLL4 [2]): 17.6
B6: Fab VH5-51_IGHD5-18*01>3_IGHJ4*01 G104K & V3-4_IGLJ1*01 (Fab, V domains shown)
VH: B1 VH with T100G, G104K
VL: B1 VL
notes: as for B1

- Kd [5]: 38 µM
B8: Fab VH6-1_IGHD3-3*01_IGHJ4*01 & V4-3_IGLJ4*01 (Fab, V domains shown)
VH: QVQLQQSGPGLVKPSQTLSLTCAISGDSVSSNSAAWNWIRQSPSRGLEWLGRTYYRSKWYNDYAVSVKSRITINPDTSKNQFSLQLNSVTPEDTAVYYCAREYYDFWSGYYTDYFDYWGQGTLVTVSS
VL: QPVLTQPTSLSASPGASARLTCTLRSGINLGSYRIFWYQQKPESPPRYLLSYYSDSSKHQGSGVPSRFSGSKDASSNAGILVISGLQSEDEADYYCMIWHSSASFVFGGGTQLIIL
notes: Germline Fab made in E. coli: VH in Plasmid A (CH1, His6 and Flag tags), lambda VL in Plasmid E (lambda CL)
